Data set [1] addresses T1, BRD4 N-terminal tandem bromodomain fragment (BD1-BD2) (Homo sapiens, UniProt O60885 49-460). The data set can be described thus: SPR; 1-200 uM ODN; SPR: 10 mM HEPES pH 7.4, 150 mM NaCl, 50 uM EDTA, 0.005% P20, 24 C; MST: PBS, 0.05% Tween-20, 22 C; NMR: 20 mM Na-phosphate pH 7.5, 80 mM KCl, 5% D2O, 25 C; nucleosome: 20 mM Tris-HCl pH 8.0, NaCl 2 M to 250 mM. The settings on record: protein: recombinant, tags: N-terminal His8 (RED-tris-NTA label for MST; Ni-NTA capture for SPR). On the technique in general: Surface plasmon resonance follows binding to a sensor surface in real time, without labels.

Data set [2] deals with T1, BRD4 N-terminal tandem bromodomain …. The experiment in a line: SPR; no ligand; SPR: 10 mM HEPES pH 7.4, 150 mM NaCl, 50 uM EDTA, 0.005% P20, 24 C; MST: PBS, 0.05% Tween-20, 22 C; NMR: 20 mM Na-phosphate pH 7.5, 80 mM KCl, 5% D2O, 25 C; nucleosome: 20 mM Tris-HCl pH 8.0, NaCl 2 M to 250 mM. The settings on record: protein: recombinant; tags: N-terminal His8 (RED-tris-NTA label for MST; Ni-NTA capture for SPR); duplex flanks around G4 with opposing C-rich strand; about 50% G4 folded without PDS.

For data set [3] the target is unchanged. The experiment in a line: NMR; 80 mM KCl; 1:2 BRD4:G4 model; SPR: 10 mM HEPES pH 7.4, 150 mM NaCl, 50 uM EDTA, 0.005% P20, 24 C; MST: PBS, 0.05% Tween-20, 22 C; NMR: 20 mM Na-phosphate pH 7.5, 80 mM KCl, 5% D2O, 25 C; nucleosome: 20 mM Tris-HCl pH 8.0, NaCl 2 M to 250 mM. The settings on record: protein: recombinant; tags: N-terminal His8 (RED-tris-NTA label for MST; Ni-NTA capture for SPR); parallel 3-quartet G4; unimolecular fraction about 50% in the NMR sample.

Data set [4] has the same target. The data set can be described thus: SPR; SPR: 10 mM HEPES pH 7.4, 150 mM NaCl, 50 uM EDTA, 0.005% P20, 24 C; MST: PBS, 0.05% Tween-20, 22 C; NMR: 20 mM Na-phosphate pH 7.5, 80 mM KCl, 5% D2O, 25 C; nucleosome: 20 mM Tris-HCl pH 8.0, NaCl 2 M to 250 mM. As to conditions: protein: recombinant; tags: N-terminal His8 (RED-tris-NTA label for MST; Ni-NTA capture for SPR); parallel 3-quartet G4; unimolecular fraction about 50% in the NMR sample.

Broadly, the Kd is the free concentration of one partner at which half of the binding sites on the other are occupied at equilibrium, for simple one-to-one binding.

B1: dsCntr (dsDNA)
DNA 1: ATCACACTTGGCTTTCAACCAGTCTATGCTGCAGCTGATCA
DNA 2: TGATCAGCTGCAGCATAGACTGGTTGAAAGCCAAGTGTGAT
In the case of B1, the binding result in data set [1] (blunt) is “no binding”.

B2: dsG4 (mixed)
DNA 1: ATCACACTTGGCAGGGAGGGAGGGAGGGATGCAGCTGATCA
DNA 2: TGATCAGCTGCATCCCTCCCTCCCTCCCTGCCAAGTGTGAT
B2: in data set [2], the Kd was determined as 5 ± 3 µM.

As for CCCCCTCCCCCTCCCCCTCCCCC (structured_DNA) [iM], the binding result in data set [1] (i-motif) is given as “no binding”.

For CAATCGGATCGAATTCGATCCGATTG (structured_DNA) [ds26], the binding result in data set [1] (hairpin) is given as “no binding”.

Take GGGAGGGAGGGAGGG (structured_DNA) [G4 (SE G4)]: the Kd in data set [3] is 6 ± 1 µM; in data set [4] it was 5 ± 3 µM.

Source of the values: paper PMC12311796.
